Starred links: 1 amine or outer side, 2 acyl side, 3 side chain; linkers in the order of their positions; H or OH if unused. Non-standard residues stand in square brackets, D forms with d. Groups on a side chain read outwards from the residue. Primed or numbered codes have the meaning given here. *: point of attachment. Tet2 = (S)-2-amino-4-(1H-tetrazol-5-yl)butanoic acid, O=C([C@H](CCc1nn[nH]n1)N[*:1])[*:2]; ButanoicP = (R)-4-(pyrrolidin-2-yl)butanoic acid, O=C(CCC[C@@H]1CCCN1[*:1])[*:2]; Ala(1H-tetrazol-5-yl) = N[C@@H](Cc1nnn[nH]1)C(=O)O; Dip = N[C@H](C(=O)O)C(c1ccccc1)c1ccccc1; His(τ-Me) = Cn1cnc(C[C@H](N)C(=O)O)c1; Stearoyl = CCCCCCCCCCCCCCCCCC(=O)*; Palmitoyl = CCCCCCCCCCCCCCCC(=O)*; Myristoyl = CCCCCCCCCCCCCC(=O)*; β3hF = N[C@H](CC(=O)O)Cc1ccccc1; (n-hexyl)Gly = n-hexyl glycine; Tle = CC(C)(C)[C@H](N)C(=O)O; hLeu = CC(C)CC[C@H](N)C(=O)O; Isovaleryl = CC(C)CC(=O)*; hIle′ = not defined here; AEEA = NCCOCCOCC(=O)O; Ahx = NCCCCCC(=O)O; βAla = NCCC(=O)O
T1: human ferroportin (SLC40A1) fused in frame with GFP, stably expressed in HEK293 cells (human, UniProt Q9NP59 1-571)
T1 sequence (looked up): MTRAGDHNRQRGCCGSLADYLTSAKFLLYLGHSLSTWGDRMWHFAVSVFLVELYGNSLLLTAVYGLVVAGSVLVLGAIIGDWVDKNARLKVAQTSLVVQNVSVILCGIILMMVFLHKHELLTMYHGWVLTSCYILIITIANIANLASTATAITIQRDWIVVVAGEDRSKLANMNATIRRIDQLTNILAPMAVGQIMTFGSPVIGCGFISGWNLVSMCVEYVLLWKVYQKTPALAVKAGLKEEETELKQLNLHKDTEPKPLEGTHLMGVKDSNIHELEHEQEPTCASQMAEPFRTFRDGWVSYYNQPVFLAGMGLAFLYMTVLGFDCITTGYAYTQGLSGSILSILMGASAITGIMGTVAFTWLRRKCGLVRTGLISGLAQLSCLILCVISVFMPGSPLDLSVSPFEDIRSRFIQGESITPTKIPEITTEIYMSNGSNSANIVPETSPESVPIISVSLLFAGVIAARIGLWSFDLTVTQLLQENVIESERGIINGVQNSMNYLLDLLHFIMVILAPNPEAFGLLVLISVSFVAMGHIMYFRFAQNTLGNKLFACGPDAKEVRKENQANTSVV

B1: Isovaleric Acid-E-T-H-[Dpa]-P-A-I-[Lys(bAla_Palm)]-[bhPhe]-NH2 (peptide)
peptide: Isovaleryl-ETH[Dip]PAIK([βAla-Palmitoyl])[β3hF]-NH2
B2: Isovaleric Acid-E-T-H-[Dpa]-P-A-I-[Lys(1PEG2_1PEG2_Palm)]-[bhPhe]-NH2 (peptide)
peptide: Isovaleryl-ETH[Dip]PAIK([AEEA-AEEA-Palmitoyl])[β3hF]-NH2
B3: Isovaleric Acid-E-T-H-[Dpa]-P-A-I-[Lys(1PEG2_1PEG2_Ahx_Palm)]-[bhPhe]-NH2 (peptide)
peptide: Isovaleryl-ETH[Dip]PAIK([AEEA-AEEA-Ahx-Palmitoyl])[β3hF]-NH2
SMILES: CCCCCCCCCCCCCCCC(=O)NCCCCCC(=O)NCCOCCOCC(=O)NCCOCCOCC(=O)NCCCC[C@H](NC(=O)[C@@H](NC(=O)[C@H](C)NC(=O)[C@@H]1CCCN1C(=O)[C@@H](NC(=O)[C@H](Cc1c[nH]cn1)NC(=O)[C@@H](NC(=O)[C@H](CCC(=O)O)NC(=O)CC(C)C)[C@@H](C)O)C(c1ccccc1)c1ccccc1)[C@@H](C)CC)C(=O)N[C@H](CC(N)=O)Cc1ccccc1
B4: Isovaleric Acid-E-T-H-[Dpa]-P-A-I-[Lys(Ahx_C10)]-[bhPhe]-NH2 (peptide)
peptide: Isovaleryl-ETH[Dip]PAIK([Ahx-C10])[β3hF]-NH2
B5: Isovaleric Acid-E-T-H-[Dpa]-P-A-I-[Lys(Ahx_C14)]-[bhPhe]-NH2 (peptide)
peptide: Isovaleryl-ETH[Dip]PAIK([Ahx-Myristoyl])[β3hF]-NH2
B6: Isovaleric Acid-E-T-H-[Dpa]-P-A-I-[Lys(Ahx_C18)]-[bhPhe]-NH2 (peptide)
peptide: Isovaleryl-ETH[Dip]PAIK([Ahx-Stearoyl])[β3hF]-NH2
B7: Isovaleric Acid-E-T-H-[Dpa]-P-A-I-[Lys(Ahx_C22)]-[bhPhe]-NH2 (peptide)
peptide: Isovaleryl-ETH[Dip]PAIK([Ahx-C22])[β3hF]-NH2
B8: Isovaleric Acid-[Tet1]-T-H-[Dpa]-P-A-I-[Lys(Ahx_Palm)]-NH2 (peptide)
peptide: Isovaleryl-[Ala(1H-tetrazol-5-yl)]TH[Dip]PAIK([Ahx-Palmitoyl])-NH2
SMILES: CCCCCCCCCCCCCCCC(=O)NCCCCCC(=O)NCCCC[C@H](NC(=O)[C@@H](NC(=O)[C@H](C)NC(=O)[C@@H]1CCCN1C(=O)[C@@H](NC(=O)[C@H](Cc1c[nH]cn1)NC(=O)[C@@H](NC(=O)[C@H](Cc1nnn[nH]1)NC(=O)CC(C)C)[C@@H](C)O)C(c1ccccc1)c1ccccc1)[C@@H](C)CC)C(N)=O
B9: Isovaleric Acid-E-T-[His_1Me]-[Dpa]-P-A-I-[Lys(Ahx_Palm)]-NH2 (peptide)
peptide: Isovaleryl-ET[His(τ-Me)][Dip]PAIK([Ahx-Palmitoyl])-NH2
B10: Isovaleric Acid-[Tet1]-T-[His_1Me]-[Dpa]-P-A-I-[Lys(Ahx_Palm)]-NH2 (peptide)
peptide: Isovaleryl-[Ala(1H-tetrazol-5-yl)]T[His(τ-Me)][Dip]PAIK([Ahx-Palmitoyl])-NH2
SMILES: CCCCCCCCCCCCCCCC(=O)NCCCCCC(=O)NCCCC[C@H](NC(=O)[C@@H](NC(=O)[C@H](C)NC(=O)[C@@H]1CCCN1C(=O)[C@@H](NC(=O)[C@H](Cc1cn(C)cn1)NC(=O)[C@@H](NC(=O)[C@H](Cc1nnn[nH]1)NC(=O)CC(C)C)[C@@H](C)O)C(c1ccccc1)c1ccccc1)[C@@H](C)CC)C(N)=O
B11: Isovaleric Acid-[Tet1]-T-[His_1Me]-[Dpa]-[ButanoicP]-[Lys(Ahx_Palm)]-NH2 (peptide)
peptide: Isovaleryl-[Ala(1H-tetrazol-5-yl)]T[His(τ-Me)][Dip][ButanoicP]K([Ahx-Palmitoyl])-NH2
SMILES: CCCCCCCCCCCCCCCC(=O)NCCCCCC(=O)NCCCC[C@H](NC(=O)CCC[C@@H]1CCCN1C(=O)[C@@H](NC(=O)[C@H](Cc1cn(C)cn1)NC(=O)[C@@H](NC(=O)[C@H](Cc1nnn[nH]1)NC(=O)CC(C)C)[C@@H](C)O)C(c1ccccc1)c1ccccc1)C(N)=O
B12: Isovaleric Acid-[Tet1]-T-H-[Dpa]-P-I-I-[Lys(Ahx_Palm)]-[bhPhe]-NH2 (peptide)
peptide: Isovaleryl-[Ala(1H-tetrazol-5-yl)]TH[Dip]PIIK([Ahx-Palmitoyl])[β3hF]-NH2
SMILES: CCCCCCCCCCCCCCCC(=O)NCCCCCC(=O)NCCCC[C@H](NC(=O)[C@@H](NC(=O)[C@@H](NC(=O)[C@@H]1CCCN1C(=O)[C@@H](NC(=O)[C@H](Cc1c[nH]cn1)NC(=O)[C@@H](NC(=O)[C@H](Cc1nnn[nH]1)NC(=O)CC(C)C)[C@@H](C)O)C(c1ccccc1)c1ccccc1)[C@@H](C)CC)[C@@H](C)CC)C(=O)N[C@H](CC(N)=O)Cc1ccccc1
B13: Isovaleric Acid-[Tet2]-T-H-[Dpa]-P-I-I-[Lys(Ahx_Palm)]-[bhPhe]-NH2 (peptide)
peptide: Isovaleryl-[Tet2]TH[Dip]PIIK([Ahx-Palmitoyl])[β3hF]-NH2
SMILES: CCCCCCCCCCCCCCCC(=O)NCCCCCC(=O)NCCCC[C@H](NC(=O)[C@@H](NC(=O)[C@@H](NC(=O)[C@@H]1CCCN1C(=O)[C@@H](NC(=O)[C@H](Cc1c[nH]cn1)NC(=O)[C@@H](NC(=O)[C@H](CCc1nn[nH]n1)NC(=O)CC(C)C)[C@@H](C)O)C(c1ccccc1)c1ccccc1)[C@@H](C)CC)[C@@H](C)CC)C(=O)N[C@H](CC(N)=O)Cc1ccccc1
B14: Isovaleric Acid-E-T-[His_1Me]-[Dpa]-P-I-I-[Lys(Ahx_Palm)]-[bhPhe]-NH2 (peptide)
peptide: Isovaleryl-ET[His(τ-Me)][Dip]PIIK([Ahx-Palmitoyl])[β3hF]-NH2
B15: Isovaleric Acid-E-T-H-[Dpa]-P-A-[Lys(Ahx_Palm)]-NH2 (peptide)
peptide: Isovaleryl-ETH[Dip]PAK([Ahx-Palmitoyl])-NH2
SMILES: CCCCCCCCCCCCCCCC(=O)NCCCCCC(=O)NCCCC[C@H](NC(=O)[C@H](C)NC(=O)[C@@H]1CCCN1C(=O)[C@@H](NC(=O)[C@H](Cc1c[nH]cn1)NC(=O)[C@@H](NC(=O)[C@H](CCC(=O)O)NC(=O)CC(C)C)[C@@H](C)O)C(c1ccccc1)c1ccccc1)C(N)=O
B16: Isovaleric Acid-[Tet1]-T-[His_1Me]-[Dpa]-P-I-I-[Lys(Ahx_Palm)]-[bhPhe]-NH2 (peptide)
peptide: Isovaleryl-[Ala(1H-tetrazol-5-yl)]T[His(τ-Me)][Dip]PIIK([Ahx-Palmitoyl])[β3hF]-NH2
B17: Isovaleric Acid-[Tet2]-T-[His_1Me]-[Dpa]-P-I-I-[Lys(Ahx_Palm)]-[bhPhe]-NH2 (peptide)
peptide: Isovaleryl-[Tet2]T[His(τ-Me)][Dip]PIIK([Ahx-Palmitoyl])[β3hF]-NH2
SMILES: CCCCCCCCCCCCCCCC(=O)NCCCCCC(=O)NCCCC[C@H](NC(=O)[C@@H](NC(=O)[C@@H](NC(=O)[C@@H]1CCCN1C(=O)[C@@H](NC(=O)[C@H](Cc1cn(C)cn1)NC(=O)[C@@H](NC(=O)[C@H](CCc1nn[nH]n1)NC(=O)CC(C)C)[C@@H](C)O)C(c1ccccc1)c1ccccc1)[C@@H](C)CC)[C@@H](C)CC)C(=O)N[C@H](CC(N)=O)Cc1ccccc1
B18: Isovaleric Acid-E-T-H-[Dpa]-P-I-I-[Lys(Ahx_Palm)]-[bhPhe]-NH2 (peptide)
peptide: Isovaleryl-ETH[Dip]PIIK([Ahx-Palmitoyl])[β3hF]-NH2
B19: Isovaleric Acid-E-T-H-[Dpa]-P-[hIle]-I-[Lys(Ahx_Palm)]-[bhPhe]-NH2 (peptide)
peptide: Isovaleryl-ETH[Dip]P[hIle′]IK([Ahx-Palmitoyl])[β3hF]-NH2
B20: Isovaleric Acid-E-T-H-[Dpa]-P-L-I-[Lys(Ahx_Palm)]-[bhPhe]-NH2 (peptide)
peptide: Isovaleryl-ETH[Dip]PLIK([Ahx-Palmitoyl])[β3hF]-NH2
B21: Isovaleric Acid-E-T-H-[Dpa]-P-[hLeu]-I-[Lys(Ahx_Palm)]-[bhPhe]-NH2 (peptide)
peptide: Isovaleryl-ETH[Dip]P[hLeu]IK([Ahx-Palmitoyl])[β3hF]-NH2
SMILES: CCCCCCCCCCCCCCCC(=O)NCCCCCC(=O)NCCCC[C@H](NC(=O)[C@@H](NC(=O)[C@H](CCC(C)C)NC(=O)[C@@H]1CCCN1C(=O)[C@@H](NC(=O)[C@H](Cc1c[nH]cn1)NC(=O)[C@@H](NC(=O)[C@H](CCC(=O)O)NC(=O)CC(C)C)[C@@H](C)O)C(c1ccccc1)c1ccccc1)[C@@H](C)CC)C(=O)N[C@H](CC(N)=O)Cc1ccccc1
B22: Isovaleric Acid-E-T-H-[Dpa]-P-V-I-[Lys(Ahx_Palm)]-[bhPhe]-NH2 (peptide)
peptide: Isovaleryl-ETH[Dip]PVIK([Ahx-Palmitoyl])[β3hF]-NH2
SMILES: CCCCCCCCCCCCCCCC(=O)NCCCCCC(=O)NCCCC[C@H](NC(=O)[C@@H](NC(=O)[C@@H](NC(=O)[C@@H]1CCCN1C(=O)[C@@H](NC(=O)[C@H](Cc1c[nH]cn1)NC(=O)[C@@H](NC(=O)[C@H](CCC(=O)O)NC(=O)CC(C)C)[C@@H](C)O)C(c1ccccc1)c1ccccc1)C(C)C)[C@@H](C)CC)C(=O)N[C@H](CC(N)=O)Cc1ccccc1
B23: Isovaleric Acid-E-T-H-[Dpa]-P-[DiethylGly]-I-[Lys(Ahx_Palm)]-[bhPhe]-NH2 (peptide)
peptide: Isovaleryl-ETH[Dip]P[DiethylGly]IK([Ahx-Palmitoyl])[β3hF]-NH2
B24: Isovaleric Acid-E-T-H-[Dpa]-P-[t-BuAlanine]-I-[Lys(Ahx_Palm)]-[bhPhe]-NH2 (peptide)
peptide: Isovaleryl-ETH[Dip]P[tBuAlanine]IK([Ahx-Palmitoyl])[β3hF]-NH2
B25: Isovaleric Acid-E-T-H-[Dpa]-P-[t-BuGly]-I-[Lys(Ahx_Palm)]-[bhPhe]-NH2 (peptide)
peptide: Isovaleryl-ETH[Dip]P[Tle]IK([Ahx-Palmitoyl])[β3hF]-NH2
SMILES: CCCCCCCCCCCCCCCC(=O)NCCCCCC(=O)NCCCC[C@H](NC(=O)[C@@H](NC(=O)[C@@H](NC(=O)[C@@H]1CCCN1C(=O)[C@@H](NC(=O)[C@H](Cc1c[nH]cn1)NC(=O)[C@@H](NC(=O)[C@H](CCC(=O)O)NC(=O)CC(C)C)[C@@H](C)O)C(c1ccccc1)c1ccccc1)C(C)(C)C)[C@@H](C)CC)C(=O)N[C@H](CC(N)=O)Cc1ccccc1
B26: Isovaleric Acid-E-T-H-[Dpa]-P-[(n-hexyl)Gly]-I-[Lys(Ahx_Palm)]-[bhPhe]-NH2 (peptide)
peptide: Isovaleryl-ETH[Dip]P[(n-hexyl)Gly]IK([Ahx-Palmitoyl])[β3hF]-NH2

These binders were tested against T1, human ferroportin (SLC40A1) fused in … (assay: cell-based or functional assay).

In order of falling “FPN EC50” value:
1. B7  1330 nM
2. B26  427 nM
3. B13  376 nM
4. B20  372 nM
5. B18  232 nM
6. B19  228 nM
7. B11  214 nM
8. B22  199 nM
9. B15  193 nM
10. B21  150 nM
11. B4  123 nM
12. B17  101 nM
13. B5  92.4 nM
14. B12  86.8 nM
15. B6  82.2 nM
16. B2  73.7 nM
17. B9  73 nM
18. B23  69.7 nM
19. B3  63.5 nM
20. B1  62.9 nM
21. B14  59.7 nM
22. B8  44.1 nM
23. B25  40.3 nM
24. B24  34.2 nM
25. B16  33.4 nM
26. B10  30.2 nM

Source: US20240066131A1 (Protagonist Therapeutics, Inc., priority 2020, published 2024)
